Each block holds one binder with its values, some of them ahead of it. *1 amine or outer side, *2 acyl side, *3 side chain or, on linkers, in order; H or OH if unused. Where no end group is shown, it is not given here. [ ]: non-standard residue; d: D form. NMeF = CN[C@@H](Cc1ccccc1)C(=O)O; Suc = O=C(CCC(=O)[*:2])[*:1]; NMeV = CN[C@H](C(=O)O)C(C)C
Assays:
Test in all cases: cell-based or functional assay
[1] = target: T1, zebrafish Tac3ra (tac3 receptor a, NKB receptor) (zebrafish)
T1 chain: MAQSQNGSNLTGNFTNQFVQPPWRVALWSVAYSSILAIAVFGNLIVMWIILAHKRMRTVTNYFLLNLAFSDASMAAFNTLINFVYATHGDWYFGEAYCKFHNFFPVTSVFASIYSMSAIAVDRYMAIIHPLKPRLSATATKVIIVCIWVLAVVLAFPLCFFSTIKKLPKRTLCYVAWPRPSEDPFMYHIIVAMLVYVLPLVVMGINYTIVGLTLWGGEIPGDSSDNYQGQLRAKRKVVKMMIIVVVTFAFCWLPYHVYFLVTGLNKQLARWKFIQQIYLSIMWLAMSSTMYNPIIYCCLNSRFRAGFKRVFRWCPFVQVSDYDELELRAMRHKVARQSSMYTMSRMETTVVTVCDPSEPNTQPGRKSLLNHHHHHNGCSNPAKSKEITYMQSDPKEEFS

[2] = target: T2, zebrafish Tac3rb (tac3 receptor b, NKB receptor) (zebrafish)
T2 chain: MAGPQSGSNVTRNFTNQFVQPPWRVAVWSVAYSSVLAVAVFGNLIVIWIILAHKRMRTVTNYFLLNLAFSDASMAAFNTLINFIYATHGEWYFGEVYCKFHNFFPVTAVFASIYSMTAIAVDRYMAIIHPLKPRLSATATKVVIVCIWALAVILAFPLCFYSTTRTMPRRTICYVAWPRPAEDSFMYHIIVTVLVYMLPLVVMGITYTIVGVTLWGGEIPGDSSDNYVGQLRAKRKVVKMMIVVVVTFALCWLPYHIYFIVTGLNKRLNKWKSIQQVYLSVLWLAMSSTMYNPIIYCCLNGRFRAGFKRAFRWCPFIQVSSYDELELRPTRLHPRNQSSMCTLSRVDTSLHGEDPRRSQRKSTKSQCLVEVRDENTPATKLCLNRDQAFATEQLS

[3] = target: T1, zebrafish Tac3ra (tac3 receptor a, NKB …)
[4] = target: T2, zebrafish Tac3rb (tac3 receptor b, NKB …)
[5] = target: T1, zebrafish Tac3ra (tac3 receptor a, NKB …)
[6] = target: T2, zebrafish Tac3rb (tac3 receptor b, NKB …)
[7] = target: T3, human NK3R (human NKB receptor) (human, UniProt P29371 1-465)
T3 sequence (looked up): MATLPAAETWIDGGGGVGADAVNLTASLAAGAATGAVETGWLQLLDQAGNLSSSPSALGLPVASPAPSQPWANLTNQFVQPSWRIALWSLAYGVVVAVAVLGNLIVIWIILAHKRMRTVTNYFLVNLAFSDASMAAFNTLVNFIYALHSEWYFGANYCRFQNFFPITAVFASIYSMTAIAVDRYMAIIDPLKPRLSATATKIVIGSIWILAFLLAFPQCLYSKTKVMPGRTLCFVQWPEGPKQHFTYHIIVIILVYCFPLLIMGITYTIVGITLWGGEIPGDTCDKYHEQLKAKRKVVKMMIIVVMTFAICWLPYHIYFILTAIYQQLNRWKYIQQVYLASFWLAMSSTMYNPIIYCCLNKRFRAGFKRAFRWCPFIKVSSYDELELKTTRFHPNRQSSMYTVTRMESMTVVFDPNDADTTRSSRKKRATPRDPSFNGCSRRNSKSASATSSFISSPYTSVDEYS

[8] = target: T3, human NK3R (human NKB receptor); remark: listed apart in the source

EC50, CRE-Luc to follow PKA activation, transfected COS-7 cells [1]: 12.9 nM | EC50, CRE-Luc to follow PKA activation, transfected COS-7 cells [2]: 8.12 nM | EC50, SRE reporter gene that follows PKC activation, transfected COS-7 cells [3]: 2.2 nM | EC50, SRE reporter gene that follows PKC activation, transfected COS-7 cells [4]: 0.82 nM | EC50, CRE-Luc reporter (PKA activation), transfected COS-7 cells [5]: 12.9 nM | EC50, SRE-Luc reporter (PKC activation), transfected COS-7 cells [5]: 2.2 nM | EC50, CRE-Luc reporter (PKA activation), transfected COS-7 cells [6]: 8.12 nM | EC50, SRE-Luc reporter (PKC activation), transfected COS-7 cells [6]: 0.82 nM
Binder: DMHDFFVGLM-NH2 [human NKB (neurokinin B)]

EC50, CRE-Luc to follow PKA activation, transfected COS-7 cells [7]: 7.33 nM | EC50, CRE-Luc to follow PKA activation, transfected COS-7 cells [1]: 9.14 nM | EC50, CRE-Luc to follow PKA activation, transfected COS-7 cells [2]: 7.75 nM | EC50, SRE reporter gene that follows PKC activation, transfected COS-7 cells [8]: 0.71 nM | EC50, SRE reporter gene that follows PKC activation, transfected COS-7 cells [3]: 0.31 nM | EC50, SRE reporter gene that follows PKC activation, transfected COS-7 cells [4]: 0.54 nM
Binder: XDSFXGLM (N-terminal succinyl (Succ) on Asp; N(Me)Val; C-terminal amide (-NH2)) [NKF-analog (Succ-Asp-Ser-Phe-N(Me)Val-Gly-Leu-Met-NH2)]

EC50, CRE-Luc to follow PKA activation, transfected COS-7 cells [7]: 16.8 nM | EC50, CRE-Luc to follow PKA activation, transfected COS-7 cells [1]: 6.94 nM | EC50, CRE-Luc to follow PKA activation, transfected COS-7 cells [2]: 11.9 nM | EC50, SRE reporter gene that follows PKC activation, transfected COS-7 cells [8]: 3.44 nM | EC50, SRE reporter gene that follows PKC activation, transfected COS-7 cells [3]: 0.15 nM | EC50, SRE reporter gene that follows PKC activation, transfected COS-7 cells [4]: 0.29 nM
B1: NKBa-analog (Succ-Asp-Ile-Phe-N(Me)Val-Gly-Leu-Met-NH2) (peptide)
peptide: Suc-DIF[NMeV]GLM-NH2
SMILES: CC[C@H](C)[C@H](NC(=O)[C@H](CC(=O)O)NC(=O)CCC(=O)O)C(=O)N[C@@H](Cc1ccccc1)C(=O)N(C)[C@H](C(=O)NCC(=O)N[C@@H](CC(C)C)C(=O)N[C@@H](CCSC)C(N)=O)C(C)C

EC50, CRE-Luc to follow PKA activation, transfected COS-7 cells [1]: 49 nM | EC50, CRE-Luc to follow PKA activation, transfected COS-7 cells [2]: 20.1 nM | EC50, SRE reporter gene that follows PKC activation, transfected COS-7 cells [3]: 2.68 nM | EC50, SRE reporter gene that follows PKC activation, transfected COS-7 cells [4]: 2.72 nM | EC50, CRE-Luc reporter (PKA activation), transfected COS-7 cells [5]: 49 nM | EC50, SRE-Luc reporter (PKC activation), transfected COS-7 cells [5]: 2.67 nM | EC50, CRE-Luc reporter (PKA activation), transfected COS-7 cells [6]: 20.1 nM | EC50, SRE-Luc reporter (PKC activation), transfected COS-7 cells [6]: 2.72 nM
Binder: Suc-DF[NMeF]GLM-NH2 [Senktide (Succ-Asp-Phe-N(Me)Phe-Gly-Leu-Met-NH2)]

Reference: patent US20150072933A1, “NOVEL SEQUENCES FOR THE CONTROL OF REPRODUCTION IN FISH” (Yissum Research Development Company of the Hebrew …, priority 2011, published 2015)
